Reference: US20150344570A1 (published 2015)

T1: FcγRIIb extracellular domain with C-terminal His tag (human, UniProt P31994 43-217)
T1 construct: extracellular domain; Soluble receptor expressed in FreeStyle293 cells, used as analyte in Biacore; also called FcgRIIb; 2b
T1 sequence (looked up): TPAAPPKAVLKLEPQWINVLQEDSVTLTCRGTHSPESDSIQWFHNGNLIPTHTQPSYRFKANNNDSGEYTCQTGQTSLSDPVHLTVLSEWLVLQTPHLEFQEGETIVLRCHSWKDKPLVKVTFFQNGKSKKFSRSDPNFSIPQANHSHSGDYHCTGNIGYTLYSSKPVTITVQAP

B1: GpH7-A5/GpH7-B3 variant E333_13S/GpL16-k0 (antibody, human IgG1, kappa)
heavy 1: not shown
heavy 2: not shown
light: DIVMTQSPLSLPVTPGEPASISCQASESLVHSNRNTYLHWYLQKPGQSPQLLIYKVSNRFSGVPDRFSGSGSGTDFTLKISRVEAEDVGVYYCSQNTHVPPTFGQGTKVEIERTVAAPSVFIFPPSDEQLKSGTASVVCLLNNFYPREAKVQWKVDNALQSGNSQESVTEQDSKDSTYSLSSTLTLSKADYEKHKVYACEVTHQGLSSPVTKSFNRGEC
notes: Heterodimerized anti-glypican-3 IgG1; mutation in the GpH7-B3 chain only; also called He Ab
B2: GpH7-A5/GpH7-B3 variant S324_12R/GpL16-k0 (antibody, human IgG1, kappa)
heavy 1: not shown
heavy 2: not shown
light: B1 light
notes: as for B1
B3: GpH7-A5/GpH7-B3 variant K334_07I/GpL16-k0 (antibody, human IgG1, kappa)
heavy 1: not shown
heavy 2: not shown
light: B1 light
notes: as for B1
B4: GpH7-A5/GpH7-B3 variant I332_01G/GpL16-k0 (antibody, human IgG1, kappa)
heavy 1: not shown
heavy 2: not shown
light: B1 light
notes: as for B1
B5: GpH7-A5/GpH7-B3 variant P329_12R/GpL16-k0 (antibody, human IgG1, kappa)
heavy 1: not shown
heavy 2: not shown
light: B1 light
notes: as for B1
B6: GpH7-A5/GpH7-B3 variant I332_09D/GpL16-k0 (antibody, human IgG1, kappa)
heavy 1: not shown
heavy 2: not shown
light: B1 light
notes: as for B1
B7: GpH7-A5/GpH7-B3 variant S298_03V/GpL16-k0 (antibody, human IgG1, kappa)
heavy 1: not shown
heavy 2: not shown
light: B1 light
notes: as for B1
B8: GpH7-A5/GpH7-B3 variant S324_02A/GpL16-k0 (antibody, human IgG1, kappa)
heavy 1: not shown
heavy 2: not shown
light: B1 light
notes: as for B1
B9: GpH7-A5/GpH7-B3 variant K334_01G/GpL16-k0 (antibody, human IgG1, kappa)
heavy 1: not shown
heavy 2: not shown
light: B1 light
notes: as for B1
B10: GpH7-A5/GpH7-B3 variant S298_09D/GpL16-k0 (antibody, human IgG1, kappa)
heavy 1: not shown
heavy 2: not shown
light: B1 light
notes: as for B1
B11: GpH7-A5/GpH7-B3 variant S324_11K/GpL16-k0 (antibody, human IgG1, kappa)
heavy 1: not shown
heavy 2: not shown
light: B1 light
notes: as for B1
B12: GpH7-A5/GpH7-B3 variant S298_07I/GpL16-k0 (antibody, human IgG1, kappa)
heavy 1: not shown
heavy 2: not shown
light: B1 light
notes: as for B1
B13: GpH7-A5/GpH7-B3 variant I332_10E/GpL16-k0 (antibody, human IgG1, kappa)
heavy 1: not shown
heavy 2: not shown
light: B1 light
notes: as for B1
B14: GpH7-A5/GpH7-B3 variant S298_04F/GpL16-k0 (antibody, human IgG1, kappa)
heavy 1: not shown
heavy 2: not shown
light: B1 light
notes: as for B1
B15: GpH7-A5/GpH7-B3 variant Q295_16H/GpL16-k0 (antibody, human IgG1, kappa)
heavy 1: not shown
heavy 2: not shown
light: B1 light
notes: as for B1
B16: GpH7-A5/GpH7-B3 variant K334_08L/GpL16-k0 (antibody, human IgG1, kappa)
heavy 1: not shown
heavy 2: not shown
light: B1 light
notes: as for B1
B17: GpH7-A5/GpH7-B3 variant S324_01G/GpL16-k0 (antibody, human IgG1, kappa)
heavy 1: not shown
heavy 2: not shown
light: B1 light
notes: as for B1
B18: GpH7-A5/GpH7-B3 variant S298_16H/GpL16-k0 (antibody, human IgG1, kappa)
heavy 1: not shown
heavy 2: not shown
light: B1 light
notes: as for B1
B19: GpH7-A5/GpH7-B3 variant S324_16H/GpL16-k0 (antibody, human IgG1, kappa)
heavy 1: not shown
heavy 2: not shown
light: B1 light
notes: as for B1
B20: GpH7-A5/GpH7-B3 variant K334_05P/GpL16-k0 (antibody, human IgG1, kappa)
heavy 1: not shown
heavy 2: not shown
light: B1 light
notes: as for B1
B21: GpH7-A5/GpH7-B3 variant Q295_18N/GpL16-k0 (antibody, human IgG1, kappa)
heavy 1: not shown
heavy 2: not shown
light: B1 light
notes: as for B1
B22: GpH7-A5/GpH7-B3 variant E333_16H/GpL16-k0 (antibody, human IgG1, kappa)
heavy 1: not shown
heavy 2: not shown
light: B1 light
notes: as for B1
B23: GpH7-A5/GpH7-B3 variant K334_04F/GpL16-k0 (antibody, human IgG1, kappa)
heavy 1: not shown
heavy 2: not shown
light: B1 light
notes: as for B1
B24: GpH7-A5/GpH7-B3 variant Q295_14T/GpL16-k0 (antibody, human IgG1, kappa)
heavy 1: not shown
heavy 2: not shown
light: B1 light
notes: as for B1
B25: GpH7-A5/GpH7-B3 variant K334_06M/GpL16-k0 (antibody, human IgG1, kappa)
heavy 1: not shown
heavy 2: not shown
light: B1 light
notes: as for B1
B26: GpH7-A5/GpH7-B3 variant K334_02A/GpL16-k0 (antibody, human IgG1, kappa)
heavy 1: not shown
heavy 2: not shown
light: B1 light
notes: as for B1
B27: GpH7-A5/GpH7-B3 variant P329_11K/GpL16-k0 (antibody, human IgG1, kappa)
heavy 1: not shown
heavy 2: not shown
light: B1 light
notes: as for B1
B28: GpH7-A5/GpH7-B3 variant I332_12R/GpL16-k0 (antibody, human IgG1, kappa)
heavy 1: not shown
heavy 2: not shown
light: B1 light
notes: as for B1
B29: GpH7-A5/GpH7-B3 variant K334_09D/GpL16-k0 (antibody, human IgG1, kappa)
heavy 1: not shown
heavy 2: not shown
light: B1 light
notes: as for B1
B30: GpH7-A5/GpH7-B3 variant Q295_13S/GpL16-k0 (antibody, human IgG1, kappa)
heavy 1: not shown
heavy 2: not shown
light: B1 light
notes: as for B1
B31: GpH7-A5/GpH7-B3 variant P329_02A/GpL16-k0 (antibody, human IgG1, kappa)
heavy 1: not shown
heavy 2: not shown
light: B1 light
notes: as for B1
B32: GpH7-A5/GpH7-B3 variant S298_14T/GpL16-k0 (antibody, human IgG1, kappa)
heavy 1: not shown
heavy 2: not shown
light: B1 light
notes: as for B1
B33: GpH7-A5/GpH7-B3 variant S324_10E/GpL16-k0 (antibody, human IgG1, kappa)
heavy 1: not shown
heavy 2: not shown
light: B1 light
notes: as for B1
B34: GpH7-A5/GpH7-B3 variant S298_15Y/GpL16-k0 (antibody, human IgG1, kappa)
heavy 1: not shown
heavy 2: not shown
light: B1 light
notes: as for B1

How the values were obtained:
[1] = target: T1, FcγRIIb extracellular domain with …; test: SPR (Biacore), antibody captured on antigen peptide chip, FcγR as analyte; GpH7-A5/GpH7-B3/GpL16-k0 = 100
Method: (§1) The heterodimerized antibodies He Abs in which one of the H chains was introduced with an alteration were assayed for their binding activities to each activating FcγR and inhibitory FcγR according to the method described in Example 4. […] The activating FcγRs in FIGS. 26, 27, 28, and 29 are FcγRIa, FcγRIIa (R), FcγRIIa (H), and FcγRIIIa, respectively.
(§2) Analysis of interaction between objective antibody and the FcγR was carried out using Biacore T100 (GE Healthcare). HBS-EP+ (GE Healthcare) was used as the running buffer, and the measurement temperature was set to 25° C. Chips produced by immobilizing the antigen peptide by the amine coupling method to a Series S Sencor Chip CM5 (GE Healthcare), or alternatively, chips produced by allowing preliminarily biotinylated antigen peptides to interact with and immobilize onto a Series S Sensor Chip SA (certified) (GE Healthcare) were used. Antibodies of interest were captured onto an antigen peptide-immobilized chip, and allowed to interact to each FcγR diluted with running buffer. To regenerate and repeatedly use the chip, the antibodies captured on the chip were washed off by reacting 10 mM glycine-HCl, pH 1.5.

[2] = target: T2, FcγRIIIa extracellular domain with C-terminal His tag (human, UniProt P08637 17-208); test: as above
T2 construct: extracellular domain; also called FcgRIIIa; 3a
Method: as §1, §2

[3] = target: T2, FcγRIIIa extracellular domain with …; test: SPR (Biacore); He/Con_3a divided by He/Con_2b (FcγRIIIa against FcγRIIb)
Method: as §1, §2

T2 sequence (P08637 17-208): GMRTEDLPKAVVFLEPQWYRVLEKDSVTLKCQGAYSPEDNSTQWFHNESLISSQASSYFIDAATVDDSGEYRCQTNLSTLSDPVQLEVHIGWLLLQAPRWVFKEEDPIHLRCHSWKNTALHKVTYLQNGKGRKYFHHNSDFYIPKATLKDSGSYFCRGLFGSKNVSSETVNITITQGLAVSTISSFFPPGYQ

Row | Binder | He/Con_2b (relative binding activity) [1] | He/Con_3a (relative binding activity) [2] | He_3a/2b (IIIa/IIb) [3] [ratio]
1 | B1 | 81.8 % of control | 103 % of control | 1.26
2 | B2 | 63.1 % of control | 90.3 % of control | 1.43
3 | B3 | 119 % of control | 151 % of control | 1.27
4 | B4 | 87.1 % of control | 111 % of control | 1.27
5 | B5 | 17.6 % of control | 26.7 % of control | 1.52
6 | B6 | 147 % of control | 207 % of control | 1.41
7 | B7 | 64.5 % of control | 109 % of control | 1.69
8 | B8 | 78.3 % of control | 104 % of control | 1.33
9 | B9 | 92.5 % of control | 121 % of control | 1.31
10 | B10 | 48.3 % of control | 66.7 % of control | 1.38
11 | B11 | 68.6 % of control | 83 % of control | 1.21
12 | B12 | 70.6 % of control | 96.4 % of control | 1.37
13 | B13 | 142 % of control | 233 % of control | 1.63
14 | B14 | 65.4 % of control | 82.5 % of control | 1.26
15 | B15 | 62.7 % of control | 76.4 % of control | 1.22
16 | B16 | 106 % of control | 143 % of control | 1.35
17 | B17 | 81.1 % of control | 105 % of control | 1.29

Row | Binder | He/Con_2b (relative binding activity) [1] | He/Con_3a (relative binding activity) [2] | He_3a/2b (IIIa/IIb) [3] [ratio]
18 | B18 | 63.5 % of control | 76.5 % of control | 1.2
19 | B19 | 83.5 % of control | 104 % of control | 1.24
20 | B20 | 105 % of control | 134 % of control | 1.27
21 | B21 | 64.9 % of control | 81.6 % of control | 1.26
22 | B22 | 83.3 % of control | 103 % of control | 1.24
23 | B23 | 111 % of control | 148 % of control | 1.33
24 | B24 | 66.8 % of control | 115 % of control | 1.72
25 | B25 | 109 % of control | 144 % of control | 1.33
26 | B26 | 108 % of control | 147 % of control | 1.37
27 | B27 | 16.9 % of control | 29.6 % of control | 1.76
28 | B28 | 48.9 % of control | 75.9 % of control | 1.55
29 | B29 | 94.8 % of control | 160 % of control | 1.69
30 | B30 | 56.9 % of control | 86.1 % of control | 1.51
31 | B31 | 40.5 % of control | 56.4 % of control | 1.39
32 | B32 | 77.9 % of control | 113 % of control | 1.45
33 | B33 | 77.4 % of control | 99.3 % of control | 1.28
34 | B34 | 61.4 % of control | 85.6 % of control | 1.39
